Assays:
[1] = system: pro-MSP (single-chain recombinant human pro-macrophage-stimulating protein, C672A)
[2] = system: pro-MSP-R483E (cleavage-site mutant of pro-MSP)
pro-MSP-R483E (cleavage-site mutant of pro-MSP), sequence (chain, as listed by the source R483E): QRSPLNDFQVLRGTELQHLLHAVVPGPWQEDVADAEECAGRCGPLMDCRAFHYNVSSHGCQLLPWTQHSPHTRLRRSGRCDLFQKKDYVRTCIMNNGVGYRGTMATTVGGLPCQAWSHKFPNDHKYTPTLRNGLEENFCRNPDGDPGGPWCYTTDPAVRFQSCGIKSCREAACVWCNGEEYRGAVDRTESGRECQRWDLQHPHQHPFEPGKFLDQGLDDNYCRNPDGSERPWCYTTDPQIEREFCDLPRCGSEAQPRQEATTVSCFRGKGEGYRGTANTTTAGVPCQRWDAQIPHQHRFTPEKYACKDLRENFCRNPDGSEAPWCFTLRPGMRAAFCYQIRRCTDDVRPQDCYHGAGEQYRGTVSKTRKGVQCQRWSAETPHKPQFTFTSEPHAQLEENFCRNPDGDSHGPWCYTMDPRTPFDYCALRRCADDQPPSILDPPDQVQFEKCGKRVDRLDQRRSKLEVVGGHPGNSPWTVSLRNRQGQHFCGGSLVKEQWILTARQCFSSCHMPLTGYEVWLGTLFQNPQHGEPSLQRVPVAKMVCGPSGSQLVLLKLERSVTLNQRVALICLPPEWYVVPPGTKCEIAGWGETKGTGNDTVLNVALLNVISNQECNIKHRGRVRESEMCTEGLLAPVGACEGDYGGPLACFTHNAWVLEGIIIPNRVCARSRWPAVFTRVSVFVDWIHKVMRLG

extracellular domain of human recombinant hepsin, sequence (chain, as listed by the source): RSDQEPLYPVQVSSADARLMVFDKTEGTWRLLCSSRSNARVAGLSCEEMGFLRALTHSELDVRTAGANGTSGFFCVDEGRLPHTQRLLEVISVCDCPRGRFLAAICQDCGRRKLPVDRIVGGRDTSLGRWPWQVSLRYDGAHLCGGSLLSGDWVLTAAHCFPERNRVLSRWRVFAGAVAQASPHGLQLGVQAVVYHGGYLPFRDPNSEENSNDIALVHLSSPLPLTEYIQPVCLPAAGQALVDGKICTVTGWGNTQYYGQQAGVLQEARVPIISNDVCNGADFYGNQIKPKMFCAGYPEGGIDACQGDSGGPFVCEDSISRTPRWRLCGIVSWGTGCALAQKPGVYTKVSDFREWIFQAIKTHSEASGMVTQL

## extracellular domain of human recombinant hepsin
[1]
  proteolytic activation of pro-MSP, gel-mobility shift on reducing SDS-PAGE (hepsin 1.25-10 nM, 37° C.): Hepsin activated pro-MSP in a dose-dependent and time dependent manner
[2]
  proteolytic processing by hepsin, SDS-PAGE: Hepsin did not cleave this mutant pro-MSP despite prolonged incubation (24 hours)

Source: patent US20120282271
